US20260193377A1 (FULL LIFE TECHNOLOGIES HK, published 2026)
Positions count from the first letter of the chain named.

Assays:
[1] = molecular target: T1, GCC expressed on T84 cells (UniProt P25092 24-1073, limits assumed); assay: flow cytometry on T84 cells expressing GCC, 300 nm [sic], PE-anti human Fc secondary; Blank 30.7
T1 construct: whole, on cells; also called guanylyl cyclase C; GUCY2C
Experimental: T84 cells expressing GCC were used to evaluate the binding affinity of the anti-GCC sdAbs. Briefly, 50 μL T84 cells at density of 3×10⁶ cells/mL were incubated with 50 μL anti-GCC sdAbs at 4° C. for 2 hours. After incubation, the cells were washed three times with 400 μL FACS buffer, resuspended with PE-anti human Fc 2nd antibody (eBioscience 12-4998-82, 1:1000 dilution) and incubated at 4° C. for 60 min. Then the cells were collected and subject to FACS analysis.

[2] = molecular target: T2, Human GUCY2C (captured on anti-human Fc capturing antibody, SPR) (human); assay: SPR (Biacore T200), human GUCY2C captured via anti-human Fc, sdAb as analyte, 1:1 fit
T2 construct: also called human GCC; guanylyl cyclase C
Experimental: (§1) Anti-GCC sdAbs were diluted with 1×HBS-EP buffer. Human GUCY2C was captured on anti-human Fc capturing Ab-immobilized sCM5 chip. Then anti-GCC sdAb samples were injected with a flow rate of 10 μl/min for 180 sec, followed by dissociation for 800 sec. The binding curves were locally fitted with Biacore® T200 analysis software (BIAevaluation) using a 1:1 Langmuir binding model.

[3] = molecular target: T2, Human GUCY2C (captured on anti-human Fc …); assay: SPR (Biacore T200), human GUCY2C captured via anti-human Fc, humanized sdAb as analyte, 1:1 fit
Experimental: as §1, with “Exemplary humanized anti-GCC” for “Anti-GCC”, “sdAbs of the present application” for “sdAbs”, “Then the humanized” for “Then”

T2 sequence (P25092 24-430): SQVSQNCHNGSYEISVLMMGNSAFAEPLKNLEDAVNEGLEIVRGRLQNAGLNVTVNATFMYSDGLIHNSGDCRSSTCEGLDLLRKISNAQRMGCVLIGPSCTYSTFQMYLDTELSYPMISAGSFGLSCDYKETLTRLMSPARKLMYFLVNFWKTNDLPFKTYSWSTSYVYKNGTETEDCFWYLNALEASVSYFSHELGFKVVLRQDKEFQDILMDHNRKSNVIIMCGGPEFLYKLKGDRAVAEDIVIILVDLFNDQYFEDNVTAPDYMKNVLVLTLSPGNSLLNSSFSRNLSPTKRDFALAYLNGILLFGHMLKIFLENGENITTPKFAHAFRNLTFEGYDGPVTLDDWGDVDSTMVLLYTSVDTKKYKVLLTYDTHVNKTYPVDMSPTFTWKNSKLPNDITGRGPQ
T1 sequence (P25092 24-1073 limits assumed): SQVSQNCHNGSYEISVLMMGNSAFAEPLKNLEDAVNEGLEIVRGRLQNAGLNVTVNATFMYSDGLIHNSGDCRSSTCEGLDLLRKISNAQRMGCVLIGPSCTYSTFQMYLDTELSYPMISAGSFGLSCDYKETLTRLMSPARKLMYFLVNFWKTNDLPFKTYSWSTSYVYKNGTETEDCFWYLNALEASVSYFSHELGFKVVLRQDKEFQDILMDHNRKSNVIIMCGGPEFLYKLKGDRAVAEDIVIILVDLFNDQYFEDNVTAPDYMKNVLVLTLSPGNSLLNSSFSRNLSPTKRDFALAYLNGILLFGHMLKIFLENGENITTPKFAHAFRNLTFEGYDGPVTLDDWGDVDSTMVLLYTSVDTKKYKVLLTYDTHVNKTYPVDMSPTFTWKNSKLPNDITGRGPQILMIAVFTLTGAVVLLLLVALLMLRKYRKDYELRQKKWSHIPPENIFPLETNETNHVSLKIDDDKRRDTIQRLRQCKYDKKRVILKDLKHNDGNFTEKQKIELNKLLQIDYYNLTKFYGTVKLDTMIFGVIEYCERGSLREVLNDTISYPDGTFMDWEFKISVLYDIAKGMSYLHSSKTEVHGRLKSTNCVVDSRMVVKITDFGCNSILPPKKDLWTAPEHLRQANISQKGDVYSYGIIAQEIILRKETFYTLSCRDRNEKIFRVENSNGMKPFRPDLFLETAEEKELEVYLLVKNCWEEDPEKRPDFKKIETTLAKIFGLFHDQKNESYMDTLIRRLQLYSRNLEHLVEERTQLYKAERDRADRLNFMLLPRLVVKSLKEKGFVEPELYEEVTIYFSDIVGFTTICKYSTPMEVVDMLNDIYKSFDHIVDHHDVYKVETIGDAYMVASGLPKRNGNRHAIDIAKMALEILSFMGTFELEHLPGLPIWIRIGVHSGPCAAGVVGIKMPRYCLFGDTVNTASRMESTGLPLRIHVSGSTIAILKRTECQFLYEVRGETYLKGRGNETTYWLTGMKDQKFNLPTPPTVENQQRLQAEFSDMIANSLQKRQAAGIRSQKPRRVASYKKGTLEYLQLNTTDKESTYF

B1: anti-GCC single domain antibody SEQ ID NO. 1 (VHH)
VHH: QVQLVESGGGLVQAGGSLRLSCTGSARPFSNYGMGWFRQAPGKEREFVAAISGGGVYTDFADAVKGRFTISRDNAKNTVYLQMNSLKPEDTAVYYCARARTARVVSRRHEYDYWGQGTQVTVSS
notes: Alpaca-derived sdAb
[1]
  Geometric mean MFI: 790
[2]
  Kd: 0.56 nM
  koff: 0.0002 s⁻¹
  kon: 357000 M⁻¹ s⁻¹

B2: anti-GCC single domain antibody SEQ ID NO. 2 (VHH)
VHH: B1 VHH with G24A, A26G, R27G, P28T, S30V, T58R, A63S, V93L, A102P, S106N
notes: Alpaca-derived sdAb
[1]
  Geometric mean MFI: 721
[2]
  Kd: 0.0759 nM
  koff: 4.67e-05 s⁻¹
  kon: 615000 M⁻¹ s⁻¹

B3: anti-GCC single domain antibody SEQ ID NO. 3 (VHH)
VHH: B1 VHH with L4F, G24A, A26G, R27G, P28I, A63S, N74R, V104L, V105T, E110D
notes: Alpaca-derived sdAb
[1]
  Geometric mean MFI: 910
[2]
  Kd: 0.218 nM
  koff: 0.00018 s⁻¹
  kon: 827000 M⁻¹ s⁻¹

B4: anti-GCC single domain antibody SEQ ID NO. 4 (VHH)
VHH: QSQLVESGGGLVQPGGSLRLSCAASGSTLDHYATAWFRRAPGKEREGISYISSGGGSTYYVDSVKGRFTISRDNAKRTVYLQMNSLKPEDTAVYFCASKRRFNTGWSEPSDYNVWGQGTQVTVTS
notes: Alpaca-derived sdAb
[2]
  Kd: 0.414 nM
  koff: 0.000149 s⁻¹
  kon: 359000 M⁻¹ s⁻¹

B5: anti-GCC single domain antibody SEQ ID NO. 5 (VHH)
VHH: AVQLVESGGGLVQPGGSLRLSCAASGSTISINVMGWYRQAPGKQRDLVAAISSVGSTYYADSVKGRFTISRDNAKNTVYLQMNSLKPEDTAVYYCNAKSLISDYWGQGTQVTVSS
notes: Alpaca-derived sdAb
[1]
  Geometric mean MFI: 371
[2]
  Kd: 0.431 nM
  koff: 0.000142 s⁻¹
  kon: 330000 M⁻¹ s⁻¹

B6: anti-GCC single domain antibody SEQ ID NO. 6 (VHH)
VHH: QVQVVESGGGLVQAGGSLRLSCAASGRAFSSYAMGWFRQAPGKQRELVAVITSGGSTNYADSVKGRFTISRDNAKNTVYLQMNSLKPEDTAVYYCAAGTGYGGGFLIGYDYWGQGTQVTVSS
notes: Alpaca-derived sdAb
[1]
  Geometric mean MFI: 298
[2]
  Kd: 0.753 nM
  koff: 0.000172 s⁻¹
  kon: 228000 M⁻¹ s⁻¹

B7: anti-GCC single domain antibody SEQ ID NO. 7 (VHH)
VHH: QVQLVESGGGLVQPGGSLRLSCAASGSRFMTSSMGWYRQTPGKQREWVATATSSDSTLYADAVKGRFTISRDNAKNTVYLQMNSLKPQDTAVYYCFTTPPTFWGHGTQVTVSS
notes: Alpaca-derived sdAb
[1]
  Geometric mean MFI: 268
[2]
  Kd: 2.53 nM
  koff: 0.000395 s⁻¹
  kon: 156000 M⁻¹ s⁻¹

B8: anti-GCC single domain antibody SEQ ID NO. 8 (VHH)
VHH: EVDLVESGGGLVQPGGSLRLSCGASGFTFSHYAMSWVRQAPGKALEWVSDISSGGGITKYADSVKGRFTISRDDAQNTLYLQMNSLKPEDTAVYYCAKASAIGYLAYWMRNPVEYDTRGQGTLVTVSS
notes: Alpaca-derived sdAb
[1]
  Geometric mean MFI: 669
[2]
  Kd: 0.0259 nM
  koff: 6.7e-05 s⁻¹
  kon: 2.59e+06 M⁻¹ s⁻¹

B9: anti-GCC single domain antibody SEQ ID NO. 9 (VHH)
VHH: QKQLVESGGGLVQPGGSLRLSCAASGETLSNYNIGWFRQAPGKEREGVSCISQIGFTNYADSVKGRFTLFRASAENTVYLQMNSLKPEDTAVYYCAVTGGRWASCSFLPLRQDFESWGQGTLVTVSS
notes: Alpaca-derived sdAb
[1]
  Geometric mean MFI: 447
[2]
  Kd: 0.116 nM
  koff: 0.00103 s⁻¹
  kon: 8.84e+06 M⁻¹ s⁻¹

B10: anti-GCC single domain antibody SEQ ID NO. 10 (VHH)
VHH: AVQLVESGGGMVQPGGSLRLSCAASGFTFGAYDMTWVRQAPGKGAEWVSAINSGGDRTYYTDSVKGRFTISRDNAKNTLYLQMNSLKPADTAKYYCGTKIPQFLRGQGTQVTVSS
notes: Alpaca-derived sdAb
[2]
  Kd: 0.427 nM
  koff: 0.000702 s⁻¹
  kon: 1.64e+06 M⁻¹ s⁻¹

B11: humanized anti-GCC single domain antibody SEQ ID NO. 83 (VHH)
VHH: EVQLVESGGGLVQPGGSLRLSCAASARPFSNYGMGWFRQAPGKEREFVAAISGGGVYTYYADSVKGRFTISRDNSKNTLYLQMNSLRAEDTAVYYCARARTARVVSRRHEYDYWGQGTQVTVSS
notes: 1
[3]
  Kd: 0.115 nM
  koff: 0.000177 s⁻¹
  kon: 1.53e+06 M⁻¹ s⁻¹

B12: humanized anti-GCC single domain antibody SEQ ID NO. 85 (VHH)
VHH: B11 VHH with K76R
notes: 1
[3]
  Kd: 0.187 nM
  koff: 0.000309 s⁻¹
  kon: 1.66e+06 M⁻¹ s⁻¹

B13: humanized anti-GCC single domain antibody SEQ ID NO. 86 (VHH)
VHH: B11 VHH with A23T, A24G, K43N, Y59D, Y60F
notes: 1
[3]
  Kd: 0.235 nM
  koff: 0.000181 s⁻¹
  kon: 768000 M⁻¹ s⁻¹

B14: humanized anti-GCC single domain antibody SEQ ID NO. 107 (VHH)
VHH: B7 VHH with Q1E, A62S, T77S, V78L, K86R, P87A, Q88E
notes: 7
[3]
  Kd: 2.03 nM
  koff: 0.000531 s⁻¹
  kon: 261000 M⁻¹ s⁻¹

B15: humanized anti-GCC single domain antibody SEQ ID NO. 108 (VHH)
VHH: B7 VHH with Q1E, A62S, K75R, T77S, V78L, K86R, P87A, Q88E
notes: 7
[3]
  Kd: 2.37 nM
  koff: 0.000546 s⁻¹
  kon: 231000 M⁻¹ s⁻¹

B16: humanized anti-GCC single domain antibody SEQ ID NO. 109 (VHH)
VHH: B7 VHH with Q1E, K43N, A62S, T77S, V78L, K86R, P87A, Q88E
notes: 7
[3]
  Kd: 11.8 nM
  koff: 0.00213 s⁻¹
  kon: 181000 M⁻¹ s⁻¹

B17: humanized anti-GCC single domain antibody SEQ ID NO. 110 (VHH)
VHH: B7 VHH with Q1E, K43N, Q44G, A62S, T77S, V78L, K86R, P87A, Q88E
notes: 7
[3]
  Kd: 54.6 nM
  koff: 0.01 s⁻¹
  kon: 183000 M⁻¹ s⁻¹

B18: humanized anti-GCC single domain antibody SEQ ID NO. 88 (VHH)
VHH: B11 VHH with A26G, R27G, P28T, S30V, T58R, A102P, S106N
notes: 2
[3]
  Kd: 0.155 nM
  koff: 0.000337 s⁻¹
  kon: 2.17e+06 M⁻¹ s⁻¹

B19: humanized anti-GCC single domain antibody SEQ ID NO. 116 (VHH)
VHH: QVQLVESGGGLVKPGGSLRLSCAASGETLSNYNIGWFRQAPGKEREGVSCISQIGFTNYADSVKGRFTISRDNAKNSLYLQMNSLRAEDTAVYYCAVTGGRWASCSFLPLRQDFESWGQGTLVTVSS
notes: 9
[3]
  Kd: 15.4 nM
  koff: 0.0636 s⁻¹
  kon: 4.14e+06 M⁻¹ s⁻¹

B20: humanized anti-GCC single domain antibody SEQ ID NO. 92 (VHH)
VHH: B11 VHH with A26G, R27G, P28I, V104L, V105T, E110D
notes: 3
[3]
  Kd: 0.759 nM
  koff: 0.000788 s⁻¹
  kon: 1.04e+06 M⁻¹ s⁻¹

B21: humanized anti-GCC single domain antibody SEQ ID NO. 94 (VHH)
VHH: B11 VHH with A26G, R27G, P28I, K76R, V104L, V105T, E110D
notes: 3
[3]
  Kd: 0.425 nM
  koff: 0.000633 s⁻¹
  kon: 1.49e+06 M⁻¹ s⁻¹

B22: humanized anti-GCC single domain antibody SEQ ID NO. 96 (VHH)
VHH: B4 VHH with V61A, A75S, R77N, V79L, K87R, P88A, F95Y
notes: 4
[3]
  Kd: 1.74 nM
  koff: 0.000143 s⁻¹
  kon: 82600 M⁻¹ s⁻¹

B23: humanized anti-GCC single domain antibody SEQ ID NO. 97 (VHH)
VHH: B4 VHH with A75S, R77N, V79L, K87R, P88A
notes: 4
[3]
  Kd: 3.68 nM
  koff: 0.000226 s⁻¹
  kon: 61300 M⁻¹ s⁻¹

B24: humanized anti-GCC single domain antibody SEQ ID NO. 112 (VHH)
VHH: B8 VHH with D3Q, G23A, K59Y, D74N, A75S, Q76K, K87R, P88A
notes: 8
[3]
  Kd: 118 nM
  koff: 0.00462 s⁻¹
  kon: 39100 M⁻¹ s⁻¹

B25: humanized anti-GCC single domain antibody SEQ ID NO. 113 (VHH)
VHH: B8 VHH with D3Q, D74N, A75S, Q76K, K87R, P88A
notes: 8
[3]
  Kd: 1.29 nM
  koff: 0.00277 s⁻¹
  kon: 2.15e+06 M⁻¹ s⁻¹

B26: humanized anti-GCC single domain antibody SEQ ID NO. 114 (VHH)
VHH: B8 VHH with E1Q, D3Q, G23A, K59Y, K65A, D74N, A75S, Q76R, K87R, P88A
notes: 8
[3]
  Kd: 195 nM
  koff: 0.0044 s⁻¹
  kon: 22600 M⁻¹ s⁻¹

B27: humanized anti-GCC single domain antibody SEQ ID NO. 100 (VHH)
VHH: B5 VHH with A74S, V78L, K86R, P87A
notes: 5
[3]
  Kd: 0.324 nM
  koff: 0.000191 s⁻¹
  kon: 591000 M⁻¹ s⁻¹

B28: humanized anti-GCC single domain antibody SEQ ID NO. 101 (VHH)
VHH: B5 VHH with K64A, A74S, K75R, V78L, K86R, P87A
notes: 5
[3]
  Kd: 0.574 nM
  koff: 0.000218 s⁻¹
  kon: 380000 M⁻¹ s⁻¹
